Laboratory results reported in patent publication US20110159569A1 (AJOU UNIVERSITY INDUSTRYACADEMIC COOPERATION FOUND, published 2011).

Target: the molecule itself
Experiment: size exclusion chromatography (HPLC, TSK G3000SW xL), self-association
Description: 0.02 ml of 5 to 20 μM protein was injected into a TSK G3000SW xL column (TosoHaas, Japan), and a phosphate buffered solution (50 mM sodium phosphate/150 mM NaCl, pH7.4) flowed at a rate of 0.7 ml/min. In this case, the chromatogram was obtained by measuring absorbance values at 280 nm.

Protein	binding result
3D8 VL protein (other, Isolated light chain variable domain of the anti-nucleic acid antibody 3D8, purified as a single domain and immobilized on a CM5 chip for SPR; also called VL chain; VL domain) VL: DLVMSQSPSSLAVSAGEKVTMSCKSSQSLFNSRTRKNYLAWYQQKPGQSPKLLIYWASTRESGVPDRFTGSGSGTDFTLTISSVQAEDLAVYYCKQSYYHMYTFGSGTKLEIK	no binding (tested: 5 to 20 µM)
3D8 VH protein (other, Isolated heavy chain variable domain of the anti-nucleic acid antibody 3D8, purified as a single domain; also called VH chain; VH domain) VH: AREVQLQQSGPELVKPGASVKMSCKASGYTFTSYVMHWVKQKPGQGLEWIGYINPYNDGTKYNEKFKGKATLTSDKSSSTAYMELSSLTSEDSAVYYCARGAYKRGYAMDYWGQGTSVTVSS	no binding (tested: 5 to 20 µM)
